Measurements reported in patent US20240190989A1 (BEIGENE SWITZERLAND, published 2024).
Changes are numbered by the printed parent chain. Names may count otherwise.

Key:
[1] = molecular target: full-length human CD137 on cells (Hut78/huCD137, HEK293 transfectants, JK-NFKB-CD137) (human, UniProt Q07011 24-255); assay: cell-based or functional assay
human CD137 ECD-mIgG2a = molecular target: T1, human CD137 ECD-mIgG2a (human); assay: SPR, A-CEAxCD137 format
T1 construct: ECD 24-183 of huCD137 fused to mouse IgG2a Fc; also called huCD137-mIgG2a; huCD137
Protocol: Characterization of anti-huCD137 VH domain antibodies were made by SPR assays using BIAcore™ T-200 (GE Life Sciences). Briefly, anti-human IgG (Fc) antibody was immobilized on an activated CM5 biosensor chip (Cat.: BR100839, GE Life Sciences). Anti-huCD137 domain antibodies were flowed over the chip surface and captured by anti-human IgG (Fc) antibody. […] The equilibrium dissociation constant (KD) was calculated as the ratio koff/kₒₙ.
Affinity comparison on CD137 affinity matured variants was made by SPR assays using BIAcore™ T-200 (GE Life Sciences) and flow cytometry as described.

[2] = molecular target: T2, soluble human CEA, amino acids 1-687 of huCEA with C-terminal 6xHis tag (human, UniProt P06731 35-687); assay: flow cytometry on MKN45 cells, 2 µg/ml antibody, competitor 20 µg/ml recombinant soluble CEA in solution
T2 construct: also called sCEA; soluble huCEA
T2 sequence: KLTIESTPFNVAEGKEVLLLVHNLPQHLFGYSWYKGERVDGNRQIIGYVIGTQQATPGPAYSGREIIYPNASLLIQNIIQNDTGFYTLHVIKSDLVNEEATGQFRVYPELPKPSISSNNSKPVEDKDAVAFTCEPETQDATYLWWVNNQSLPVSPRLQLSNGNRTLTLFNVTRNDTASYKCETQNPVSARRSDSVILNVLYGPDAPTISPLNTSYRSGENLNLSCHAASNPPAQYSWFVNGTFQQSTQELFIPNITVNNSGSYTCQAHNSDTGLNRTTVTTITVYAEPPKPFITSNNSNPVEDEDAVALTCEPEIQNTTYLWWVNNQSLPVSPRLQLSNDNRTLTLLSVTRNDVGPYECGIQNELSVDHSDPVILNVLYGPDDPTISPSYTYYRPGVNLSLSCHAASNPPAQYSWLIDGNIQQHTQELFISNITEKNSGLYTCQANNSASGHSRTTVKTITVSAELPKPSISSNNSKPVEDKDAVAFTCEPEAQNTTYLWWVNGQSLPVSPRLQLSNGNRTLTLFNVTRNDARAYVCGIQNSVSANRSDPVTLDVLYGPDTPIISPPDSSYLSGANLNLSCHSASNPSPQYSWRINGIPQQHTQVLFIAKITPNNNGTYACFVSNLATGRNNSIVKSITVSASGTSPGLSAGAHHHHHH
Protocol: The presence of soluble CEA on the specific binding of various CEA antibodies to CEA expressing cells was evaluated via flow cytometry. […] Cell fluorescence was quantified using a flow cytometer (Guava easyCyte™ 8HT, Merck-Millipore, USA).

full-length human CD137 on cells (Hut78/huCD137, HEK293 transfectants, JK-NFKB-CD137), sequence (Q07011 24-255 limits assumed): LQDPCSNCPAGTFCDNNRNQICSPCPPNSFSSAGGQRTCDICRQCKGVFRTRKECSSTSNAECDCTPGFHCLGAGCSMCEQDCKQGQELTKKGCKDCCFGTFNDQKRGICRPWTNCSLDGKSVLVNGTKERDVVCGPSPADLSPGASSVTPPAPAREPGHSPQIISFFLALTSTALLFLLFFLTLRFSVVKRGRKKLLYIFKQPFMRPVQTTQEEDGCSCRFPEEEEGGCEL
T1 sequence (chain, as listed by the source limits assumed): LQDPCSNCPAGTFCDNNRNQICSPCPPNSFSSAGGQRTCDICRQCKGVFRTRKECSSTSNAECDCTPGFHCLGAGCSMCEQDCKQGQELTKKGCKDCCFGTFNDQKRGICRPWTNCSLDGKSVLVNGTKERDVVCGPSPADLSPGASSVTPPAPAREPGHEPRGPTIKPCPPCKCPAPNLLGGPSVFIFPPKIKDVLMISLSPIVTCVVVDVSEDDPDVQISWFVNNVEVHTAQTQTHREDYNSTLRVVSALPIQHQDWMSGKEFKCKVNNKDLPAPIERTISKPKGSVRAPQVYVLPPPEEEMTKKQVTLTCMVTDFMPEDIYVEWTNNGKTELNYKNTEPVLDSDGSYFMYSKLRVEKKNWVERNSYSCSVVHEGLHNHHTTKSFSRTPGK

B1: BE-562 (E-muFc-BGA-5623) (bispecific antibody)
heavy: EVQLLESGGGLVQPGGSLRLSCAASGFTVSAEDVGWVRQAPGKGLEWVSAILDKGGSTYYAESVKGRFTISRDNAKNTLYLQMSSLRAEDTAVYYCARIVYHAGGGVTFDTRGQGTQVTVSSEPKSSDKTHTCPPCPAPPAAGPSVFLFPPKPKDTLMISRTPEVTCVVVDVSHEDPEVKFNWYVDGVEVHNAKTKPREEQYNSTYRVVSVLTVLHQDWLNGKEYKCKVSNKALAAPIEKTISKAKGQPREPQVYTLPPSREEMTKNQVSLTCLVKGFYPSDIAVEWESNGQPENNYKTTPPVLDSDGSFFLYSKLTVDKSRWQQGNVFSCSVMHEALHNHYTQKSLSLSPGKGGGGSQVQLVQSGAEVKKPGASVKVSCKASGYIFTSYYLHWVRQAPGQGLEWIGYINPQTGKTSYAQKFQGRVTMTRDTSTSTVYMELSSLRSEDTAVYYCAREYGNYNYPLDYWGQGTLVTVSSASTKGPSVFPLAPSSKSTSGGTAALGCLVKDYFPEPVTVSWNSGALTSGVHTFPAVLQSSGLYSLSSVVTVPSSSLGTQTYICNVNHKPSNTKVDKKVEPKSCD
light: DIQMTQSPSSLSASVGDRVTITCRASENQYGYLAWYQQKPGKVPKLLIYNYKNLVEGVPSRFSGSGSGTDFTLTISSLQPEDVATYYCQHHLGTPYTFGQGTKVEIKRTVAAPSVFIFPPSDEQLKSGTASVVCLLNNFYPREAKVQWKVDNALQSGNSQESVTEQDSKDSTYSLSSTLTLSKADYEKHKVYACEVTHQGLSSPVTKSFNRGEC
- Functional assay EC50 (PBMC cytokine release, in vitro CD137 activation) [1]: 4.69 µg/mL

B2: BE-755 (ZW1+2) (bispecific antibody, human IgG1, L234A L235A)
heavy: QVQLVQSGAEVKKPGASVKVSCKASGYIFTSYYLHWVRQAPGQGLEWIGYINPQTGKTSYAQKFQGRVTMTRDTSTSTVYMELSSLRSEDTAVYYCAREYGNYNYPLDYWGQGTLVTVSSASTKGPSVFPLAPSSKSTSGGTAWLGCEVTDYFPEPVTVSWNSGALTSGVHTFPAVLESSGLYSLSSVVTVPSSSLGTQTYICNVNHKPSNTKVDKKVEPKSCDKTHTCPPCPAPEAAGGPSVFLFPPKPKDTLMISRTPEVTCVVVSVSHEDPEVKFNWYVDGVEVHNAKTKPREEQYNSTYRVVSVLTVLHQDWLNGKEYKCKVSNKALPAPIEKTISKAKGQPREPQVYVLPPSRDELTKNQVSLLCLVKGFYPSDIAVEWESNGQPENNYLTWPPVLDSDGSFFLYSKLTVDKSRWQQGNVFSCSVMHEALHNHYTQKSLSLSPGK
light: B1 light with F116A, Q124R, L135V, T178R
chain: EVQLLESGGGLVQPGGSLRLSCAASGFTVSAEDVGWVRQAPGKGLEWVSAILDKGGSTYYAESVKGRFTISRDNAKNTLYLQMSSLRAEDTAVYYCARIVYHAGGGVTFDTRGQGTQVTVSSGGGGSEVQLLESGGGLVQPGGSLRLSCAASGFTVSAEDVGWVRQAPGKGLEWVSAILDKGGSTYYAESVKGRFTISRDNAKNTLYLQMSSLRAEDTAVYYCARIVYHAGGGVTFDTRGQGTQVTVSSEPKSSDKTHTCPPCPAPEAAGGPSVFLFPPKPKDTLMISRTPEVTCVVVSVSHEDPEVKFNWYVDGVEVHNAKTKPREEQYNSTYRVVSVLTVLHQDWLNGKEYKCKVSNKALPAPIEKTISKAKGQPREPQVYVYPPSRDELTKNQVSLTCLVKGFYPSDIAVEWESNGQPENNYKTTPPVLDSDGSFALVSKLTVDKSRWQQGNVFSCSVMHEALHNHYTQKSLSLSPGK
- Functional assay EC50 (PBMC cytokine release, in vitro CD137 activation) [1]: 1.16 µg/mL

B3: BE-375 (E-IgG1-BGA-5623) (bispecific antibody)
heavy: not shown
light: B1 light
- Functional assay EC50 (PBMC cytokine release, in vitro CD137 activation) [1]: 1.76 µg/mL

B4: BE-718 (A-BGA-5623-BGA-5623) (bispecific antibody, human IgG1, kappa)
heavy: QVQLVQSGAEVKKPGASVKVSCKASGYIFTSYYLHWVRQAPGQGLEWIGYINPQTGKTSYAQKFQGRVTMTRDTSTSTVYMELSSLRSEDTAVYYCAREYGNYNYPLDYWGQGTLVTVSSASTKGPSVFPLAPSSKSTSGGTAALGCLVKDYFPEPVTVSWNSGALTSGVHTFPAVLQSSGLYSLSSVVTVPSSSLGTQTYICNVNHKPSNTKVDKKVEPKSCDKTHTCPPCPAPPAAGPSVFLFPPKPKDTLMISRTPEVTCVVVDVSHEDPEVKFNWYVDGVEVHNAKTKPREEQYNSTYRVVSVLTVLHQDWLNGKEYKCKVSNKALAAPIEKTISKAKGQPREPQVYTLPPSREEMTKNQVSLTCLVKGFYPSDIAVEWESNGQPENNYKTTPPVLDSDGSFFLYSKLTVDKSRWQQGNVFSCSVMHEALHNHYTQKSLSLSPGKGGGGSEVQLLESGGGLVQPGGSLRLSCAASGFTVSAEDVGWVRQAPGKGLEWVSAILDKGGSTYYAESVKGRFTISRDNAKNTLYLQMSSLRAEDTAVYYCARIVYHAGGGVTFDTRGQGTQVTVSSGGGGSEVQLLESGGGLVQPGGSLRLSCAASGFTVSAEDVGWVRQAPGKGLEWVSAILDKGGSTYYAESVKGRFTISRDNAKNTLYLQMSSLRAEDTAVYYCARIVYHAGGGVTFDTRGQGTQVTVSS
light: B1 light
- Functional assay EC50 (PBMC cytokine release, in vitro CD137 activation) [1]: 0.01 µg/mL

B5: BE-942 (ZW 1+1) (bispecific antibody, human IgG1, L234A L235A)
heavy: B2 heavy
light: B1 light with F116A, Q124R, L135V, T178R
chain: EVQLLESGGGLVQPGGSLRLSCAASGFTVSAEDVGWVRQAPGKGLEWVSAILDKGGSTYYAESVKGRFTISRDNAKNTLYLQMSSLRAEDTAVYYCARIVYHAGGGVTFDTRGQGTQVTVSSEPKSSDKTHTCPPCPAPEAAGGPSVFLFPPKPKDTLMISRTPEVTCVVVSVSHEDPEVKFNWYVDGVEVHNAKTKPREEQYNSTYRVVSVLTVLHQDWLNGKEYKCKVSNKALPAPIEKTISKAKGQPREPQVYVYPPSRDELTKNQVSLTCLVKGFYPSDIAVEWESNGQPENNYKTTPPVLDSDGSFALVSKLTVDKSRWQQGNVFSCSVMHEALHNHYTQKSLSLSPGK
- Functional assay EC50 (PBMC cytokine release, in vitro CD137 activation) [1]: 25.1 µg/mL

B6: BE-244 (A-(G4S)3-BGA-5623) (bispecific antibody, human IgG1, kappa)
heavy: QVQLVQSGAEVKKPGASVKVSCKASGYIFTSYYLHWVRQAPGQGLEWIGYINPQTGKTSYAQKFQGRVTMTRDTSTSTVYMELSSLRSEDTAVYYCAREYGNYNYPLDYWGQGTLVTVSSASTKGPSVFPLAPSSKSTSGGTAALGCLVKDYFPEPVTVSWNSGALTSGVHTFPAVLQSSGLYSLSSVVTVPSSSLGTQTYICNVNHKPSNTKVDKKVEPKSCDKTHTCPPCPAPPAAGPSVFLFPPKPKDTLMISRTPEVTCVVVDVSHEDPEVKFNWYVDGVEVHNAKTKPREEQYNSTYRVVSVLTVLHQDWLNGKEYKCKVSNKALAAPIEKTISKAKGQPREPQVYTLPPSREEMTKNQVSLTCLVKGFYPSDIAVEWESNGQPENNYKTTPPVLDSDGSFFLYSKLTVDKSRWQQGNVFSCSVMHEALHNHYTQKSLSLSPGKGGGGSGGGGSGGGGSEVQLLESGGGLVQPGGSLRLSCAASGFTVSAEDVGWVRQAPGKGLEWVSAILDKGGSTYYAESVKGRFTISRDNAKNTLYLQMSSLRAEDTAVYYCARIVYHAGGGVTFDTRGQGTQVTVSS
light: B1 light
- Functional assay EC50 (PBMC cytokine release, in vitro CD137 activation) [1]: 0.18 µg/mL

B7: BE-740 (A-IgG1-BGA-5623) (bispecific antibody)
heavy: not shown
light: B1 light
- Functional assay EC50 (PBMC cytokine release, in vitro CD137 activation) [1]: 0.17 µg/mL

B8: Format A BGA-9468 (bispecific antibody, human IgG1, kappa)
heavy: QVQLVQSGAEVKKPGASVKVSCKASGYIFTSYYLHWVRQAPGQGLEWIGYINPQTGKTSYAQKFQGRVTMTRDTSTSTVYMELSSLRSEDTAVYYCAREYGNYNYPLDYWGQGTLVTVSSASTKGPSVFPLAPSSKSTSGGTAALGCLVKDYFPEPVTVSWNSGALTSGVHTFPAVLQSSGLYSLSSVVTVPSSSLGTQTYICNVNHKPSNTKVDKKVEPKSCDKTHTCPPCPAPPAAGPSVFLFPPKPKDTLMISRTPEVTCVVVDVSHEDPEVKFNWYVDGVEVHNAKTKPREEQYNSTYRVVSVLTVLHQDWLNGKEYKCKVSNKALAAPIEKTISKAKGQPREPQVYTLPPSREEMTKNQVSLTCLVKGFYPSDIAVEWESNGQPENNYKTTPPVLDSDGSFFLYSKLTVDKSRWQQGNVFSCSVMHEALHNHYTQKSLSLSPGKGGGGSEVQLLESGGGLVQPGGSLRLSCAASGFTVSAEDVGWVRQAPGKGLEWVSAILDSGGSTYYAESVKGRFTISRDNAKNTLYLQMSSLRAEDTAVYYCARVVYHSGGGVTFDLRGQGTQVTVSS
light: B1 light
- Kd (human CD137 ECD-mIgG2a): 873 nM

B9: BGA288 (antibody, V domains shown)
VH: EVLLQQSGPELVKPGASVKIFCKASGYTFTDYNIDWVQQSHGKSLEWIGDIGPNYGGTIYNQKFKGKATLTVAKSSSTAYMELRSLTSEDTAVYYCARRGSIPRAVDYWGQGTSVTVSS
VL: DIKMTQSPSSMYASLGERVTITCKASQDIHNYLSWFQQKPGKSPKTLIYRANRLVDGVPSRFSGSGSGQDYSLTISSLEYEDMGIYYCLQYDEFPYTFGGGTKLEIK
- binding result [2]: binds

B10: BGA190 (antibody, V domains shown)
VH: DVQLVESGGGLVQPGGSRELSCAASGFTFSSFGMHWVRQAPERGLEWVAYISIGSDIIYYADTVKGRFTISRDNPKNTLFLQMTSLRSEDTAVYYCTRRSYRSYWYFDVWGAGTTVTVSS
VL: DIQMTQSPASLSASVGETVTITCRTSENIYSYLAWYQQKQGKSPHLLVYNAKTLAEGVPSRFSGSGSGTQFSLKIISLQPEDFGTYYCQHHFLSPWMFGGGTKLEIK
- binding result [2]: binds
